Values joined by “and” are separate entries in the source; they are usually repeats but may differ in a detail not shown here. Equal values may be shown once.
How the values were obtained:
[1] = molecular target: human FcγRIIIA(V158) (human) (UniProt P08637); experiment: ELISA, E27 hexamers (E27:IgE complexes) at 0.12 µg/ml (by text and FIG. 13; footnote letters shifted); standard = HEK293
[2] = molecular target: human FcγRIIIA(F158) (human) (UniProt P08637); experiment: ELISA, E27 hexamers (E27:IgE complexes) at 0.12 µg/ml (by text and FIG. 12; footnote letters shifted); standard = HEK293
[3] = molecular target: human FcγRIIIA(F158) (human) (UniProt P08637); experiment: ELISA, Hu4D5 dimers at 1.11 µg/ml; standard = CHO-S
[4] = molecular target: human FcγRIIIA(V158) (human) (UniProt P08637); experiment: ELISA, Hu4D5 dimers at 1.11 µg/ml; standard = CHO-S; average of lots
[5] = molecular target: human FcγRIIIA(F158) (human) (UniProt P08637); experiment: as above
[6] = molecular target: human FcγRIIIA(Phe158) full-length α-chain co-expressed with γ-chain on CHO cells (human) (UniProt P08637); experiment: cell-based assay, Hu4D5 monomers on CHO cells transfected with FcγRIIIA α-chain and γ-chain (by text and FIG. 28; footnote letters shifted); standard = CHO-S
[7] = molecular target: human FcγRIIIA(V158) (human) (UniProt P08637); experiment: ELISA, Hu4D5 dimers; Table 2 prints 23.1 for the average
[8] = molecular target: human FcγRIIIA(V158) (human) (UniProt P08637); experiment: ELISA, Hu4D5 dimers at 1.11 µg/ml; standard = CHO-S
[9] = molecular target: human FcγRIIIA(Phe158) full-length α-chain co-expressed with γ-chain on CHO cells (human) (UniProt P08637); experiment: cell-based assay, Hu4D5 monomers on CHO cells transfected with FcγRIIIA α-chain and γ-chain (by text and FIG. 28; footnote letters shifted); standard = CHO-S; average of lots
[10] = molecular target: human FcγRIIIA(V158) (human) (UniProt P08637); experiment: ELISA, E27 dimers at 0.12 µg/ml (by text and FIG. 10; footnote letters shifted); standard = HEK293
[11] = molecular target: human FcγRIIIA(F158) (human) (UniProt P08637); experiment: ELISA, E27 dimers at 0.12 µg/ml (by text and FIG. 11; footnote letters shifted); standard = HEK293

Sequence of human FcγRIIIA(F158) (human) (P08637 17-208 limits assumed): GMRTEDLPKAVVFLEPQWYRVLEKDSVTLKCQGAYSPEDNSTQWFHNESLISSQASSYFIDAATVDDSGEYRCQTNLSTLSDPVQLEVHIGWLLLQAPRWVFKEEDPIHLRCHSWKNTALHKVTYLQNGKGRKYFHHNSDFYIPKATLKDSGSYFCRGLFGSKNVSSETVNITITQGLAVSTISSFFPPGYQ
Sequence of human FcγRIIIA(Phe158) full-length α-chain co-expressed with γ-chain on CHO cells (human) (P08637 17-254, chain 1 of 2): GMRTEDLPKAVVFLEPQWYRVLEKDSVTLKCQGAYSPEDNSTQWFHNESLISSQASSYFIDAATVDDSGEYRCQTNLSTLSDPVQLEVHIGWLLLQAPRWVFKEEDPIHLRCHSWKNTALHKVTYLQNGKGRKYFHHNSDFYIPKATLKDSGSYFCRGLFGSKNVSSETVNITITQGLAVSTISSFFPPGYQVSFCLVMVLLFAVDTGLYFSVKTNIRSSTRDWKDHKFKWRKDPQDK
Sequence of human FcγRIIIA(Phe158) full-length α-chain co-expressed with γ-chain on CHO cells (human) (P30273 19-86, chain 2 of 2, further chain): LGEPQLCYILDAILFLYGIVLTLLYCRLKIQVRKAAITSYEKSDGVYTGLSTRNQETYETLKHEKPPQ
Sequence of human FcγRIIIA(V158) (human) (P08637 17-208 F176V limits assumed): as the sequence (P08637 17-208 limits assumed) above, with F160V counted along it

Substance | ratio A(variant)/A(standard) at A490nm [2] | ratio A(variant)/A(standard) at A490nm [3] | ratio A(variant)/A(standard) at A490nm [10] | ratio A(variant)/A(standard) at A490nm [11] | also measured
Hu4D5 with S298A/E333A/K334A substitutions in the Fc region, expressed in Lec13 cells (fucose-deficient) (antibody) | – | 32.8 and 32.9 and 34.8 | – | – | ratio A(variant)/A(standard) at A490nm [4]: 23.1; ratio A(variant)/A(standard) at A490nm [5]: 33.5; ratio variant/standard [6]: 26.8 and 25.9; fold improvement in binding [7]: 21 fold; ratio A(variant)/A(standard) at A490nm [8]: 25.4 and 23.8 and 22.5; ratio variant/standard [9]: 26.4
anti-IgE antibody E27 expressed in CHO-DP12 cells on plates (CHO-P) | 0.65 | – | 0.32 | 0.35 | –
anti-IgE antibody E27 expressed in Lec13 cells (fucose-deficient) | 1.92 | – | 6.44 | 7.63 | –

Second part, led by results:

ratio A(variant)/A(standard) at A490nm [2] | ratio A(variant)/A(standard) at A490nm [3] | ratio A(variant)/A(standard) at A490nm [10] | ratio A(variant)/A(standard) at A490nm [11] | Substance | also measured
1.87 | – | – | – | E27 with S298A/E333A/K334A substitutions in the Fc region, expressed in HEK293 cells (antibody) | ratio A(variant)/A(standard) at A490nm [1]: 1.15
– | 20.8 | – | – | Hu4D5 with S298A/E333A/K334A substitutions in the Fc region, expressed in HEK293 cells (antibody) | –
